Assay results taken from IntAct's records for PubMed 20080638.

B1: Chaperonin-containing T-complex member BBS12 (Homo sapiens), Q6ZW61 (parent)
chain: MVMACRVVNKRRHMGLQQLSSFAETGRTFLGPLKSSKFIIDEECHESVLISSTVRLLESLDLTSAVGQLLNEAVQAQNNTYRTGISTLLFLVGAWSSAVEECLHLGVPISIIVSVMSEGLNFCSEEVVSLHVPVHNIFDCMDSTKTFSQLETFSVSLCPFLQVPSDTDLIEELHGLKDVASQTLTISNLSGRPLKSYELFKPQTKVEADNNTSRTLKNSLLADTCCRQSILIHSRHFNRTDNTEGVSKPDGFQEHVTATHKTYRCNDLVELAVGLSHGDHSSMKLVEEAVQLQYQNACVQQGNCTKPFMFDISRIFTCCLPGLPETSSCVCPGYITVVSVSNNPVIKELQNQPVRIVLIEGDLTENYRHLGFNKSANIKTVLDSMRLQEDSSEELWANHVLQVLIQFKVNLVLVQGNVSERLIEKCINSKRLVIGSVNGSVMQAFAEAAGAVQVAYITQVNEDCVGDGVCVTFWRSSPLDVVDRNNRIAILLKTEGINLVTAVLTNPVTAQMQIKEDRFWTCAYRLYYALKEEKVFLGGGAVEFLCLSCLHILAEQSLKKENHACSGWLHNTSSWLASSLAIYRPTVLKFLANGWQKYLSTLLYNTANYSSEFEASTYIQHHLQNATDSGSPSSYILNEYSKLNSRIFNSDISNKLEQIPRVYDVVTPKIEAWRRALDLVLLVLQTDSEIITGHGHTQINSQELTGFLFL
partner: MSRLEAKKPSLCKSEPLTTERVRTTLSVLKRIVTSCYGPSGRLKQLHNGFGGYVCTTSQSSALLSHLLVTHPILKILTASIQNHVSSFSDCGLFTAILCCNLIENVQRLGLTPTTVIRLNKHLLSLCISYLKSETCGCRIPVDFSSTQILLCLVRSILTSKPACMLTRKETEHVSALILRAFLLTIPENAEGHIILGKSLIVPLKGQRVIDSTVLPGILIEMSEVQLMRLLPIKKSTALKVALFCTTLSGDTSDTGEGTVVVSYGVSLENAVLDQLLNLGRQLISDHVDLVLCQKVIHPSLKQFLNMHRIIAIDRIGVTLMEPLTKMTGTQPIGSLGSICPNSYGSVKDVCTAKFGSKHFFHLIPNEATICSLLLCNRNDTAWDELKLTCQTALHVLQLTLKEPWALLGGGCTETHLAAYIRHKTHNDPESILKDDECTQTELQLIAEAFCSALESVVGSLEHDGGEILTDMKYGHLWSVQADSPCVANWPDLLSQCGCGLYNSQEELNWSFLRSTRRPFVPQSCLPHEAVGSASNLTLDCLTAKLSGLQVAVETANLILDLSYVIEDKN
B2: BBSome complex assembly protein BBS10 (Homo sapiens), Q8TAM1 (parent)
chain: MLSSMAAAGSVKAALQVAEVLEAIVSCCVGPEGRQVLCTKPTGEVLLSRNGGRLLEALHLEHPIARMIVDCVSSHLKKTGDGAKTFIIFLCHLLRGLHAITDREKDPLMCENIQTHGRHWKNCSRWKFISQALLTFQTQILDGIMDQYLSRHFLSIFSSAKERTLCRSSLELLLEAYFCGRVGRNNHKFISQLMCDYFFKCMTCKSGIGVFELVDDHFVELNVGVTGLPVSDSRIIAGLVLQKDFSVYRPADGDMRMVIVTETIQPLFSTSGSEFILNSEAQFQTSQFWIMEKTKAIMKHLHSQNVKLLISSVKQPDLVSYYAGVNGISVVECLSSEEVSLIRRIIGLSPFVPPQAFSQCEIPNTALVKFCKPLILRSKRYVHLGLISTCAFIPHSIVLCGPVHGLIEQHEDALHGALKMLRQLFKDLDLNYMTQTNDQNGTSSLFIYKNSGESYQAPDPGNGSIQRPYQDTVAENKDALEKTQTYLKVHSNLVIPDVELETYIPYSTPTLTPTDTFQTVETLTCLSLERNRLTDYYEPLLKNNSTAYSTRGNRIEISYENLQVTNITRKGSMLPVSCKLPNMGTSQSYLSSSMPAGCVLPVGGNFEILLHYYLLNYAKKCHQSEETMVSMIIANALLGIPKVLYKSKTGKYSFPHTYIRAVHALQTNQPLVSSQTGLESVMGKYQLLTSVLQCLTKILTIDMVITVKRHPQKVHNQDSEDEL
partner: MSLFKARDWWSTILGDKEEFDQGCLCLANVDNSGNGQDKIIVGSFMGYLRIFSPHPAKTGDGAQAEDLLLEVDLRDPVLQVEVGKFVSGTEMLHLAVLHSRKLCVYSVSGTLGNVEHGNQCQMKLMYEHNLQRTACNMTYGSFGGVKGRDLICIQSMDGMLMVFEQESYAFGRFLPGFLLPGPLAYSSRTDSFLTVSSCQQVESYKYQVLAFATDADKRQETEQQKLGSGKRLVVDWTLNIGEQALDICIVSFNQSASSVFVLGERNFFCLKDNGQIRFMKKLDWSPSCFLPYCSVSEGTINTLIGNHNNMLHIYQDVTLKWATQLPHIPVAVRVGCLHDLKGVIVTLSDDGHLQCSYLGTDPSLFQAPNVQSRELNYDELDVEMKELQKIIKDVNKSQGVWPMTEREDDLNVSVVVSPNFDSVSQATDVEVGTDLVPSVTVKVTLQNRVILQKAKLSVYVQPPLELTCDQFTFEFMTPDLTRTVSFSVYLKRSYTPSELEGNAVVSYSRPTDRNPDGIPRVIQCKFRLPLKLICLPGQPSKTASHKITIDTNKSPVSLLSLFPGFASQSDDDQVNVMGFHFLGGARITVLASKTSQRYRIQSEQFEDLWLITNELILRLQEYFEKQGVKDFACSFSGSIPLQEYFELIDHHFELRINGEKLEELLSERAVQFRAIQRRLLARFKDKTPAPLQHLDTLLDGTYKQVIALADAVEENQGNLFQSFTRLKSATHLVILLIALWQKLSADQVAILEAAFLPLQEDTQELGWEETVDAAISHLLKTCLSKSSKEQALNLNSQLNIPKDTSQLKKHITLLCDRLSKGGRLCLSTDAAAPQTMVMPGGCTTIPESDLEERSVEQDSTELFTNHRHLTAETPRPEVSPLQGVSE
B3: BBSome complex assembly protein BBS10 (Homo sapiens), Q8TAM1 (parent)
chain: B2 chain
partner: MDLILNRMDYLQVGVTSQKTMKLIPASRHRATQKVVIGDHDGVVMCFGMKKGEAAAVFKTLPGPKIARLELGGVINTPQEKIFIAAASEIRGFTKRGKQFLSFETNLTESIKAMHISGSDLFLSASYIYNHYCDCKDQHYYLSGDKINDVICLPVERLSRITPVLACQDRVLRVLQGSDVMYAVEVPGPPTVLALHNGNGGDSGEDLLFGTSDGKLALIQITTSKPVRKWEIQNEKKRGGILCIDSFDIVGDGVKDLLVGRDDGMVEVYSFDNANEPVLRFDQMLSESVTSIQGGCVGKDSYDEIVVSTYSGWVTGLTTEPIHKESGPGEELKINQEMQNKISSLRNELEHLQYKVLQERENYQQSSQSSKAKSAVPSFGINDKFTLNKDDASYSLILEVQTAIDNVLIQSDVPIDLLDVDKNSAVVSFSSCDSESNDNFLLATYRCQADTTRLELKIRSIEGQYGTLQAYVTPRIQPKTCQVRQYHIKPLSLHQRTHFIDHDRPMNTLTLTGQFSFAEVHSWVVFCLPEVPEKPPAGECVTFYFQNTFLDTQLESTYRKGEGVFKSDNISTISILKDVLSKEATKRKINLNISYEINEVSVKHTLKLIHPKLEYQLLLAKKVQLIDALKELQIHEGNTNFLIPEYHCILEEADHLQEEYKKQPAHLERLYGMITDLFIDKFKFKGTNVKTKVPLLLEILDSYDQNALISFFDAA
B4: BBSome complex assembly protein BBS10 (Homo sapiens), Q8TAM1 (parent)
chain: B2 chain
partner: B1 chain
B5: Molecular chaperone MKKS (Homo sapiens), Q9NPJ1 (parent)
chain: B1 partner
partner: B1 chain

Variants of: B1
Conditions: with mkks_human MKKS

| Variant | effect of a mutation on the interaction |
| --- | --- |
| T501M | decreasing interaction |
| I346T | disrupting interaction |
| G540V | decreasing interaction |

Variants of: B2
Conditions: with pthb1_human BBS9, Q3SYG4

| Variant | effect of a mutation on the interaction |
| --- | --- |
| R49W | decreasing interaction |
| D81N | decreasing interaction |

Variants of: B3
Conditions: with bbs7_human BBS7, Q8IWZ6

| Variant | effect of a mutation on the interaction |
| --- | --- |
| V240G | decreasing interaction |
| D81N | decreasing interaction |
| R34P | decreasing interaction |

Variants of: B4
Conditions: with bbs12_human BBS12, Q6ZW61

| Variant | effect of a mutation on the interaction |
| --- | --- |
| S329L | decreasing interaction |
| V240G | decreasing interaction |
| D81N | decreasing interaction |
| S311A | decreasing interaction |

Variants of: B5
Conditions: with bbs12_human BBS12, Q6ZW61

| Variant | effect of a mutation on the interaction |
| --- | --- |
| MSRLEAKKPSLCKSEPLTTERVRTTLSVLKRIVTSCYGPSGRLKQLHNGFGGYVCTASQSSALLSHLLVTHPILKILTASIQNHVSSFSDCGLFTAILCCNLIENVQRLGLTPTTVIRLNKHLLSLCISYLKSETCGCRIPVDFSSTQILLCLVRSILTSKPACMLTRKETEHVSALILRAFLLTIPENAEGHIILGKSLIVPLKGQRVIDSTVLPGILIEMSEVQLMRLLPIKKSTALKVALFCTTLSGDTSDTGEGTVVVSYGVSLENAVLDQLLNLGRQLISDHVDLVLCQKVIHPSLKQFLNMHRIIAIDRIGVTLMEPLTKMTGTQPIGSLGSICPNSYGSVKDVCTAKFGSKHFFHLIPNEATICSLLLCNRNDTAWDELKLTCQTALHVLQLTLKEPWALLGGGCTETHLAAYIRHKTHNDPESILKDDECTQTELQLIAEAFCSALESVVGSLEHDGGEILTDMKYGHLWSVQADSPCVANWPDLLSQCGCGLYNSQEELNWSFLRSTRRPFVPQSCLPHEAVGSASNLTLDCLTAKLSGLQVAVETANLILDLSYVIEDKN [T57A] | decreasing interaction |
